Data from patent US20240026407A1, “MODIFICATION OF SAPONINS” (GLAXOSMITHKLINE BIOLOGICALS SA, priority 2020, published 2024).

B1: 1023 (protein)
chain: MNLFLSIFLFCSPLFLLGQSELNYPELLYPPQAIKANWVSHPDIQGGEDRIVLFRNEWMVDDPSEAFIINISADNHYFLYVNGNLVTHGPQLSDIRHWKYETIDLKTYLKTGKNLIAIKVVNYGKRRFYGMQSIFTSLMVNGATENAKVLNTSGTDDGWKCSIDDSYRALEVNWRGGGPKSIVGGFYANNPTDFVDKNHYPTDWEQPDFDDSDWVDTQFFEGASSMGGSMAYLLEPRNLPLLTWEKEGIGHTVRTSDIDVSEFPVSGKTVVPEHKKIRFLIDQKYVTNGFPELIFSKGKNAHIKIKYAENLFGPKNTKGDRNIIKGKELLGYYDHVVSNGKERQKFTPNWMRTFRFVEFEIETKGQELVLDSFSNYRSRTHIPSIARFSSNNETYNAIFDICKRTVDICTQDYFLSDAYYETMQYVGDTKIHALLWQAMSGNLAHTKNAIEQFHRSRDADGNILGAYPLRSTFIYPTYSLVWVDMVYDYYQLTNDTDFINTYKDGIIHTLAGFEKNMNELNLVNETQYRYFVDWYTGPNNGGGTATKNNGKNSAVVSLHYVHALQNAARLFKAIGDKHTADTYLDRATAIKSSVYKLCFDPNKNIFAERPDKTVYDQHTNIMAVLTDAIAESEQKALLSNILNDPKLLQATYYYRYYLFEAIKKVGAPELFDLAQRPWQAMIDNHMTTTLERFESDKKPTRSEVHPWSASPAYFYFNYLAGIKSVKNDFQEIEIAPVFGILEDMEGLLPTSKGNILFHLKKIRSKLSAEIIVPKEMSGELVWNEKHIPLKHGQHTYILK
modifications: Zobellia galactanivorans
B2: 1062 (protein, listed as Streptosporangium roseum)
chain: MIGNAVHCAPAQTSPSRSDPAPPRLTPYGLRCEHRQTPLGVGEPRPLLSWRLASARAGDDPVAYELEVGDWSSGRVEDPAAIGAVYGGPPLLPRTRYAWRVTVWARDGAEGSAESWFETGQDVWQASWIAHDPAAVAHMDPPTEGDQALSHHGLLPCPQLRTSFESTAGVTRARLLISAKGLYEARVNGHRAGDAELAPGWTDYRRRIQYQVHDVTPFLLDGENVLAATVADGWWSGFTGFDPRRPGYHYGRFPELIAELHLTFEDGSTRVVATGEGWRTGHGRVRYGDLLKGECHDARAETPGWDLPGFDDSSWRPAVVTGDDHSLLVASRDEPVRALGELLPVSSVLVRPGVHLVDFGQNIAGRVRLAVRDQEPGRRVTVRHGETLDGEDRLHTANLRTADATDVLITAGGAEEVFEPRFTYHGFRYAEVSGIDRLDDIRAIVLHSDTPWTGTFECSDPEINRLHDNIGWGQRGNFVSVPTDCPQRDERLGWLADAQVFLPTACFNADVSGFFSKWMRDVVDAQSPEGGFSNVAPLLSGVADEGAPGWADAGVLVPWHLYRVYGDDRFLDVDSMVRWVDFVARHNPDLIWRHRTGPHFADWLAPGPATPREVLATAFFHRSAALTAEAARVRGLYGEAERMGALADRVRAAFAAAFVGDGGLVEGDTQTGYLLALAFGLLTPEQGRGAAARLAALVEESGPLTGFLGVNLLCPVLSAHGRDDLAHALLRRTDPPSWLYQVRHGATTVWERWDGVGAASMNSFNHYAFGSIGEWLYSGVAGIAQAPGSVAFREVVIRPLPGDLSRAGASYESARGLISVSWHNDAEGFRLQTRIPPGATATVHLPGGETRRVTSGDHIFELVRGEKA
B3: 1029 (protein, listed as Rhodococcus jostii)
chain: MTTPTHLRLEHLRPGEPCGTTHPRLSWRLPTGSTGQQAYQVRVAGAFDRTSSTLFTTEIIEGRDHVLVRPWTATHPAPTAGEARTWQVRCWTDLGPSDWSEPATWVTGLLHGGDLTADWIEPYEPDVPPLGHRPVYRLRASWRPRAEIAHASLFATAHGIYEFFVNDVRVGDHELTPGFTSYRAHLQVQHFDVTDLLHPEHNDLGILLSDGWFRGRHGFERHGDSFGDRVAALAELHVRYADGTSERFGTGDGWTSTPSEIDAADLMDGQRVDLRRVPAGEVRHPAVVARGGLYDDRSRLTTGVAPPVRRIETLAAVAVTEPRPGTYVVDFGQNVNGWVTAADLGPAGTHATLTHGESLAADGSVDTDHLRAFEFATGTGLPAGQVDHVVSSGRAGEAFESRHTTHGFRYVQFDGLATKPGPGSVTAAVVHTDLEQVGSFGCDNDRLAKLHAAAVWSFRGNACDVPTDCPQRERSGFTGDWQVYVETAAFTHDVAGFSDKWLRDLAADQWPDGTVPNIVPNPAGNQPSGNHFADIANGSAGWGDAAVIVPWQLWRLYGDVEVLERQYDSMTRWVERAAGAARDRRHPDRARARPTPDAHEEYLWDTGFHWGEWLEPDEIPAPDPARDHSVVATAYLARSAELLAQIAGVLGRDRDECRYAAIAAGAVRAWQREFITPEGTLTHPTQANYVRALEFDLVPAEGRRRFADELAQLLVDNDYHLGTGFLATGMLLPALARNGHLDTAYRVLLSTGNPSWMEMIDRGATTIWERWDGVDENGRATASLNHYAKGAVISFLHQFVAGLRPAETTGPHTVGYRRFVVDPRPGGDINTAHAEHCSPYGNIAVRWTIADDVFTLSLTVPSGSECELRLGDTTELLRSGTYTRTCPAARVTQRSSRASPTR
B4: 1002 (protein, listed as Flavobacterium johnsoniae)
chain: MKNFKNILLGLSFLITFISNGQILPVRLTTEMAENPLAVIENQPKFSWQLISKESDVSQVAYLILVASSEEKLNNDDGDIWNSGRVNTDKNLHIVYSGKPLKSETKYFWKVKVWNQLGKISKWSKTASFRTASLESDLNPIWIGAITKADSHLPEGRNYHTATFNREKKMSFINASDSLARRSIMLRKPFEVEKAVKEAVVYISGLGHYELTINGKKVGNSQFAPLWTDYDKTVNYNVYELSAKEFQKGDNVIGVLLGNGMYNTLAERYTKFFVSFGPPTLFFKMKIKYNDGSEEIIKSDRTWKYSKSPITYNSIFGGEDYNANLEQKDWNRKGFKDRDWKKVVIQEAPKGILRPQTAPPVTIQKQYEVKTVKELKPNFYVFDMGQNLSGFPTIKVKGKRGQTIRVWVAEGLNEEGTIAQGRSGKPYYYDYTLKGKDVEEWTPKFSFYGYQYVQIENINYKEDKNKEFPTLVDLKSNFIYNSAGEAGSFACSNEIFNKTHELINNSIKSNFQSVFTDCPQREKLGWLEEIQLNGPSLMFNYNLQTFLPATMQNISDSQRENGLIPTIVPEYVIFGGDFTDSPEWGVTGVILPWMYYEYYGDASLLEKYFPVMKNYVDYLGTKATNHIVSHGLGDWYDYGTHPAGYSKNSPIALSATSHYYYGAFLVAKASKLLGKTEDFEKYNTLASEIKTAFNAAFFNEETKQYGTSSQFSNAVPIFMDIVEPQYKEAVMQNLLADIKEKGDRLTTGDVGNRYLFQTLARNGENETMYRMHNHYDAPGYGFQIKFGLTTLTEQWDPRKGNSWNHFMLGQIEEWFYQSLAGIMSDPEKPGFKHFFIQPEVVGDMTFAKADYQSVYGKIASSWEKKDGKFILTVQIPVNTTATIKLPVAKNSEIKMDGKRVRAGFDEKAQKPVLELGSGIYTIECTI

Experiment: Experiment 6-1: screening of rhamnosidases for derhamnosylation of saponins in treated bark extract (2%), QS-17 2310 to QS-18 2164 (PAR %)
Type: biochemical, Quillaja saponaria
Details: TBE 2%, pH 7.5, 30 degC, 18 h; TIC peak area ratio percent, LCMS/MS; negative controls 3.061, 2.429

Compared with B1, B2 is higher in “Peak57 (PAR %)” value: 2.889% for the first, 2.941% for the second.

First: B3
Second: B4
The “Peak57 (PAR %)” value of the first is higher: 3.334% for the first, 2.843% for the second.

Experiment: Experiment 6-1: specificity of rhamnosidases towards other rhamnose residues (C3 saccharide rhamnose, C28 saccharide rhamnose)
Type: biochemical, Quillaja saponaria
Details: TBE 2%, pH 7.5, 30 degC, 18 h; LCMS/MS; negative controls 0.18, 0.17

First: B1
Second: B2
The “ratio PP/QS-21” value of the first is lower: 0.17 for the first, 0.18 for the second.

B3 and B4 are the same in “ratio PP/QS-21” value: 0.16 for the first, 0.16 for the second.

Experiment: Experiment 6-1: screening of rhamnosidases for derhamnosylation of saponins in treated bark extract (2%), desglucosyl-QS-17 2134 to QS-21 1988 (PAR %)
Type: biochemical, Quillaja saponaria
Details: TBE 2%, pH 7.5, 30 degC, 18 h; TIC peak area ratio percent, LCMS/MS; negative controls 2.719, 2.158

Going from B1 to B2, the “Peak75 (PAR %)” value rises from 2.120% to 2.410%.

First: B3
Second: B4
The “Peak75 (PAR %)” value of the first is lower: 2.069% for the first, 2.538% for the second.

Experiment: Experiment 6-1: screening of rhamnosidases for derhamnosylation of saponins in treated bark extract (2%), QS-17 2296 to QS-18 2150 (PAR %)
Type: biochemical, Quillaja saponaria
Details: TBE 2%, pH 7.5, 30 degC, 18 h; TIC peak area ratio percent of rhamnosylated starting saponin to derhamnosylated product, LCMS/MS; negative controls 4.876, 5.225

B1 and B2 are the same in “QS-17 (PAR %)” value: 4.916% for the first, 4.916% for the second.

Compared with B3, B4 is lower in “QS-17 (PAR %)” value: 4.926% for the first, 4.922% for the second.
